Reference: IntAct's records for PubMed 20346719

B1: Flagellar brake protein YcgR (Escherichia coli (strain K12)), P76010 (parent)
chain: MSHYHEQFLKQNPLAVLGVLRDLHKAAIPLRLSWNGGQLISKLLAITPDKLVLDFGSQAEDNIAVLKAQHITITAETQGAKVEFTVEQLQQSEYLQLPAFITVPPPTLWFVQRRRYFRISAPLHPPYFCQTKLADNSTLRFRLYDLSLGGMGALLETAKPAELQEGMRFAQIEVNMGQWGVFHFDAQLISISERKVIDGKNETITTPRLSFRFLNVSPTVERQLQRIIFSLEREAREKADKVRD
partner: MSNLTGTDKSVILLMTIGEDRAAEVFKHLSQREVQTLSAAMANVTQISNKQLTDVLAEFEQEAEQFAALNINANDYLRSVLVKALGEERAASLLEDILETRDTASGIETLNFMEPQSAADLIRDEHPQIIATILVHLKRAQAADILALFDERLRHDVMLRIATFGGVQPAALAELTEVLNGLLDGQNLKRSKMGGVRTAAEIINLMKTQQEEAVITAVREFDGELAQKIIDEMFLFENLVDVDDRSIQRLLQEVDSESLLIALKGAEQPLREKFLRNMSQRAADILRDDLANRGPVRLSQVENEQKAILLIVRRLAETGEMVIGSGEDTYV
B2: Flagellar motor switch protein FliM (Escherichia coli (strain K12)), P06974 (parent)
chain: MGDSILSQAEIDALLNGDSEVKDEPTASVSGESDIRPYDPNTQRRVVRERLQALEIINERFARHFRMGLFNLLRRSPDITVGAIRIQPYHEFARNLPVPTNLNLIHLKPLRGTGLVVFSPSLVFIAVDNLFGGDGRFPTKVEGREFTHTEQRVINRMLKLALEGYSDAWKAINPLEVEYVRSEMQVKFTNITTSPNDIVVNTPFHVEIGNLTGEFNICLPFSMIEPLRELLVNPPLENSRNEDQNWRDNLVRQVQHSQLELVANFADISLRLSQILKLNPGDVLPIEKPDRIIAHVDGVPVLTSQYGTLNGQYALRIEHLINPILNSLNEEQPK
partner: B1 chain
B3: Flagellar brake protein YcgR (Escherichia coli (strain K12)), P76010 (parent)
chain: B1 chain
partner: B2 chain
B4: Flagellar motor switch protein FliG (Escherichia coli (strain K12)), P0ABZ1 (parent)
chain: B1 partner
partner: B1 chain

Variants of: B1
Settings: with flig_ecoli fliG

| Variant | effect of a mutation on the interaction |
| --- | --- |
| MSHYHEQFLKQNPLAVLGVLRDLHKAAIPLRLSWNGGQLISKLLAITPDKLVLDFGSQAEDNIAVLKAQHITITAETQGADVEFTVEQLQQSEYLQLPAFITVPPPTLWFVQRRRYFRISAPLHPPYFCQTKLADNSTLRFRLYDLSLGGMGALLETAKPAELQEGMRFAQIEVNMGQWGVFHFDAQLISISERKVIDGKNETITTPRLSFRFLNVSPTVERQLQRIIFSLEREAREKADKVRD [K81D] | decreasing interaction |
| MSHYHEQFLKQNPLAVLGVLRDLHKAAIPLRLSWNGGQLISKLLAITPDKLVLDFGSQAEDWIAVLKAQHITITAETQGAKVEFTVEQLQQSEYLQLPAFITVPPPTLWFVQRRRYFRISAPLHPPYFCQTKLADNSTLRFRLYDLSLGGMGALLETAKPAELQEGMRFAQIEVNMGQWGVFHFDAQLISISERKVIDGKNETITTPRLSFRFLNVSPTVERQLQRIIFSLEREAREKADKVRD [N62W] | decreasing interaction |

Variants of: B2
Settings: with ycgr_ecoli ycgR

| effect of a mutation on the interaction | Variant |
| --- | --- |
| decreasing interaction | MGDSILSQAEIDALLNGDSEVKDEPTASVSGESDIRPYDPNTQRRVVRERLQALEIINERFARHFRMGLFNLLRRSPDITVGAIRIQPYHEFARNLPVPTNLNLIHLKPLRGTGLVVFSPSLVFIAVDNLFGGDGRFPTKVEGREFTHTEQRVINRMLKLALEGYSRAWKAINPLEVEYVRSEMQVKFTNITTSPNDIVVNTPFHVEIGNLTGEFNICLPFSMIEPLRELLVNPPLENSRNEDQNWRDNLVRQVQHSQLELVANFADISLRLSQILKLNPGDVLPIEKPDRIIAHVDGVPVLTSQYGTLNGQYALRIEHLINPILNSLNEEQPK [D167R] |
| decreasing interaction | MGDSILSQAEIDALLNGDSEVKDEPTASVSGESDIRPYDPNTQRRVVRERLQALEIINERFARHFRMGLFNLLRRSPDITVGAIRIQPYHEFARNLPVPTNLNLIHLKPLRGTGLVVFSPSLVFIAVDNLFGGDGRFPTKVEGREFTHTEQRVINRMLKLALEGYSDAWKAINPLRVEYVRSEMQVKFTNITTSPNDIVVNTPFHVEIGNLTGEFNICLPFSMIEPLRELLVNPPLENSRNEDQNWRDNLVRQVQHSQLELVANFADISLRLSQILKLNPGDVLPIEKPDRIIAHVDGVPVLTSQYGTLNGQYALRIEHLINPILNSLNEEQPK [E176R] |

Second part, the variant before the results:

| Variant | effect of a mutation on the interaction |
| --- | --- |
| MGDSILSQAEIDALLNGDSEVKDEPTASVSGESDIRPYDPNTQRRVVRERLQALEIINERFARHFRMGLFNLLRRSPDITVGAIRIQPYHEFARNLPVPTNLNLIHLKPLRGTGLVVFSPSLVFIAVDNLFGGDGRFPTKVEGREFTHTEQRVIERMLKLALEGYSDAWKAINPLEVEYVRSEMQVKFTNITTSPNDIVVNTPFHVEIGNLTGEFNICLPFSMIEPLRELLVNPPLENSRNEDQNWRDNLVRQVQHSQLELVANFADISLRLSQILKLNPGDVLPIEKPDRIIAHVDGVPVLTSQYGTLNGQYALRIEHLINPILNSLNEEQPK [N155E] | decreasing interaction |
| MGDSILSQAEIDALLNGDSEVKDEPTASVSGESDIRPYDPNTQRRVVRERLQALEIINERFARHFRMGLFNLLRRSPDITVGAIRIQPYHEFARNLPVPTNLNLIHLKPLRGTGLVVFSPSLVFIAVDNLFGGDGRFPTKVEGREFTHTEQRVINEMLKLALEGYSDAWKAINPLEVEYVRSEMQVKFTNITTSPNDIVVNTPFHVEIGNLTGEFNICLPFSMIEPLRELLVNPPLENSRNEDQNWRDNLVRQVQHSQLELVANFADISLRLSQILKLNPGDVLPIEKPDRIIAHVDGVPVLTSQYGTLNGQYALRIEHLINPILNSLNEEQPK [R156E] | disrupting interaction |
| MGDSILSQAEIDALLNGDSEVKDEPTASVSGESDIRPYDPNTQRRVVRERLQALEIINERFARHFRMGLFNLLRRSPDITVGAIRIQPYHEFARNLPVPTNLNLIHLKPLRGTGLVVFSPSLVFIAVDNLFGGDGRFPTKVEGREFTHTEQRVINRMLKEALEGYSDAWKAINPLEVEYVRSEMQVKFTNITTSPNDIVVNTPFHVEIGNLTGEFNICLPFSMIEPLRELLVNPPLENSRNEDQNWRDNLVRQVQHSQLELVANFADISLRLSQILKLNPGDVLPIEKPDRIIAHVDGVPVLTSQYGTLNGQYALRIEHLINPILNSLNEEQPK [L160E] | disrupting interaction |
| MGDSILSQAEIDALLNGDSEVKDEPTASVSGESDIRPYDPNTQRRVVRERLQALEIINERFARHFRMGLFNLLRRSPDITVGAIRIQPYHEFARNLPVPTNLNLIHLKPLRGTGLVVFSPSLVFIAVDNLFGGDGRFPTKVEGREFTHTEQRDINRMLKLALEGYSDAWKAINPLEVEYVRSEMQVKFTNITTSPNDIVVNTPFHVEIGNLTGEFNICLPFSMIEPLRELLVNPPLENSRNEDQNWRDNLVRQVQHSQLELVANFADISLRLSQILKLNPGDVLPIEKPDRIIAHVDGVPVLTSQYGTLNGQYALRIEHLINPILNSLNEEQPK [V153D] | decreasing interaction |

Variants of: B3
Settings: with flim_ecoli fliM

| Variant | effect of a mutation on the interaction |
| --- | --- |
| MSHYHEQFLKQNPLAVLGVLRDLHKAAIPLRLSWNGGQLISKLLAITPDKLVLDFGSQAEDNIAVLKAQHITITAETQGAKVEFTVEQLQQSEYLQLPAFITVPPPTLWFVQRRRYFRISAPLHPPYFCQTKLADNSTLRFRLYDLSLGGMGALLETAKPAELQEGMRFAQIEVNMGQWGVFHFDAQLISISERKVIDGKNETITTPRLSFRFLNVSPTVERQLQRWIFSLEREAREKADKVRD [I227W] | disrupting interaction |
| MSHYHEQFLKQNPLAVLGVLRDLHKAAIPLRLSWNGGQLISKLLAITPDKLVLDFGSQAEDNIAVLKAQHITITAETQGAKVEFTVEQLQQSEYLQLPAFITVPPPTLWFVQRRRYFRISAPLHPPYFCQTKLADNSTLRFRLYDLSLGGMGALLETAKPAELQEGMRFAQIEVNMGQWGVFHFDAQLISISERKVIDGKNETITTPRLSFRFLNVSPTVERPLQRIIFSLEREAREKADKVRD [Q223P] | disrupting interaction |

Variants of: B4
Settings: with ycgr_ecoli ycgR

| Variant | effect of a mutation on the interaction |
| --- | --- |
| MSNLTGTDKSVILLMTIGEDRAAEVFKHLSQREVQTLSAAMANVTQISNKQLTDVLAEFEQEAEQFAALNINANDYLRSVLVKALGEERAASLLEDILETRDTASGIETLNFMEPQSAADLIRDEHPQIIATILVHLKRAQAADILALFDERLRHDVMLRIATFGGVQPAALAELTEVLNGLLDGQNLKRSKMGGVRTAAEIINLMKTQQEEAVITAVREFDGELAQKIIDEMFLFENLVDVDDRSIQRLLQEVDSESLLIALKGAEQPLREKFLRNMSQRAADILRDDLAWRGPVRLSQVENEQKAILLIVRRLAETGEMVIGSGEDTYV [N292W] | decreasing interaction |
| MSNLTGTDKSVILLMTIGEDRAAEVFKHLSQREVQTLSAAMANVTQISNKQLTDVLAEFEQEAEQFAALNINANDYLRSVLVKALGEERAASLLEDILETRDTASGIETLNFMEPQSAADLIRDEHPQIIATILVHLKRAQAADILALFDERLRHDVMLRIATFGGVQPAALAELTEVLNGLLDGQNLKRSKMGGVRTAAEIINLMKTQQEEAVITAVREFDGELAQKIIDEMFLFENLVDVDDRSIQRLLQEVDSESLLIALKGAEQPLREKFLRNMSQRAADILRDDLANRGWVRLSQVENEQKAILLIVRRLAETGEMVIGSGEDTYV [P295W] | decreasing interaction |
| MSNLTGTDKSVILLMTIGEDRAAEVFKHLSQREVQTLSAAMANVTQISNKQLTDVLAEFEQEAEQFAALNINANDYLRSVLVKALGEERAASLLEDILETRDTASGIETLNFMEPQSAADLIRDEHPQIIATILVHLKRAQAADILALFDERLRHDVMLRIATFGGVQPAALAELTEVLNGLLDGQNLKRSKMGGVRTAAEIINLMKTQQEEAVITAVREFDGELAQKIIDEMFLFENLVDVDDRSIQRLLWEVDSESLLIALKGAEQPLREKFLRNMSQRAADILRDDLANRGPVRLSQVENEQKAILLIVRRLAETGEMVIGSGEDTYV [Q252W] | decreasing interaction |
